Results on two substances are retold here after patent EP2450379B1.

For experiment [1], the target named is full-length HA from isolate A/Vietnam/1194/2004 (H5N1TV) expressed on PER.C6 cells (influenza A virus A/Vietnam/1194/2004 (H5N1)) (UniProt Q80A26). Put plainly: FACS on HA (H5N1TV)-expressing PER.C6 cells, IgG 10 µg/ml.
The target is the same in experiment [2]. Kind of experiment: FACS on HA (H5N1TV)-expressing PER.C6 cells, IgG 0.1 µg/ml, separate experiment.
Experiment [3] has as its target recombinant HA, subtype H1 (A/New Caledonia/20/99 (H1N1)) (influenza A virus A/New Caledonia/20/99 (H1N1)) (UniProt Q289M7). Put plainly: ELISA, IgG 5 µg/ml. A general note: An ELISA detects its analyte on a solid surface through an enzyme-linked reagent.
Experiment [4] addresses recombinant HA, subtype H3 (A/Wyoming/3/2003(H3N2)) (influenza A virus A/Wyoming/3/2003 (H3N2)). Kind of experiment: ELISA, IgG 5 µg/ml.
Experiment [5] deals with recombinant HA, subtype H9 (A/Hong Kong/1073/99 (H9N2)) (influenza A virus A/Hong Kong/1073/99 (H9N2)). Kind of experiment: ELISA, IgG 5 µg/ml.
Experiment [6] addresses recombinant HA, subtype H7 (A/Netherlands/219/03 (H7N7)) (influenza A virus A/Netherlands/219/03 (H7N7)). Kind of experiment: ELISA, IgG 5 µg/ml.
Experiment [7] addresses recombinant HA, subtype H5 (A/Vietnam/1203/2004 (H5N1)) (influenza A virus A/Vietnam/1203/2004 (H5N1)) (UniProt Q80A26). Kind of experiment: ELISA, IgG 5 µg/ml.
The target in experiment [8] is full-length HA from isolate A/Vietnam/1194/2004 (H5N1TV) expressed on PER.C6 cells (influenza A virus A/Vietnam/1194/2004 (H5N1)) (UniProt Q80A26). Kind of experiment: FACS on HA (H5N1TV)-expressing PER.C6 cells, IgG 1 µg/ml, separate experiment.
Experiment [9] shares this target. Kind of experiment: FACS on HA (H5N1TV)-expressing PER.C6 cells, IgG 0.1 µg/ml.
Experiment [10] has the same target. Kind of experiment: FACS on HA (H5N1TV)-expressing PER.C6 cells, IgG 10 µg/ml, separate experiment.
Experiment [11] shares this target. Put plainly: FACS on HA (H5N1TV)-expressing PER.C6 cells, IgG 1 µg/ml.

Turning to CR3014 (antibody), the flow cytometry signal in experiment [1] turned out to be 13.1; in experiment [2], 10.5; in experiment [8], 7.95; in [9], 6.21; in experiment [10] it was 9.15; in experiment [11], 10. The OD 492nm in experiment [3] is 0.08 OD 492nm; in [4] it was 0.07 OD 492nm; in [5], 0.16 OD 492nm; in [6], 0.17 OD 492nm; in [7] it was 0.09 OD 492nm.
Turning to CR6261 (antibody), the OD 492nm in [4] was 0.07 OD 492nm; in [6], 0.31 OD 492nm; in experiment [7] it was 1.44 OD 492nm.
